Data: patent publication US20090264354A1 (UNIVERSITY OF UTAH RESEARCH FOUNDATION, published 2009)

Molecular target: the molecule itself
Assay: anti-Myc immunoprecipitation from co-transfected NIH3T3 lysates, non-reducing Western blot; 58-kD disulfide-bonded homodimer
Text: This example describes the analysis of the protein structure of Penumbra protein. NIH3T3 fibroblasts were co-transfected with pcDNA3.1/Pen-Myc and pEGFP NI/Pen. The latter expressed murine Penumbra (SEQ ID NO:3) as a fusion protein with enhanced green fluorescent protein (EGFP) in its C-terminus. The Pen-Myc fusion protein was first immunoprecipitated from cell lysates using the anti-Myc MAb, Western blotted and sequentially probed with anti-Myc and anti-EGFP antibodies. It appeared that both Pen-Myc/Pen-Myc and Pen-Myc/Pen-EGFP dimers were apparent in the immunoprecipitates under non-reducing conditions and they appeared to dissociate into monomers after reduction indicating they appear to form disulfide-bonded homodimers. It appeared that under reducing conditions, all Pen-Myc fusion proteins existed as 29-kD monomers. In contrast, under non-reducing conditions, it appeared that about half of Pen-Myc protein existed as 58-kD homodimers, while the remaining Pen-Myc protein appeared to exist either as 29-kDa monomers or 89-kDa dimers with Pen-EGFP. […] The same blot was then stripped and reprobed with anti-EGFP antibodies to reveal an apparent ˜60-kD Pen-EGFP monomer and the 89-kD Pen-Myc/Pen-EGFP dimer.

B1: Penumbra-Myc fusion protein (murine Penumbra with C-terminal 11-aa Myc and 6-aa His tags, expressed from pcDNA3.1/Pen-Myc) (other)
chain: MARRPGVPAAYGDEFSFVSPLVKYLLFFFNMLFWVISMVMVAVGVYARLMKHAEAALACLAVDPAILLIVVGVLMFLLTFCGCIGSLRENICLLQTFSLCLTIVFLLQLAAGILGFVFSDKARGKVSEIINNAIVHYRDDLDLQNLIDFGQKKFSCCGGISYRDWSQNMYFNCSEDNPSRERCSVPYSCCLPTPRQAVINTMCGQGMQANDYLEASKVIYTNGCIDKLVNWIHSNLFLLGGVALGLAIPQLVGILLSQVLVNQIKDQIKLQLYNQQHRADPWY
notes: Seen as a 29-kD monomer on reducing gels; also called Pen-Myc fusion protein; Pen-Myc protein; not shown: 11-aa Myc tag from the pcDNA3.1 vector; 6-aa His tag from the pcDNA3.1 vector
binding result: binds
